Assay results from US20130058937A1 (Hoffmann-La Roche, published 2013).

B1: 2+1 IgG Crossfab (N-terminal); VL/VH exchange (MCSP (LC007)/huCD3) (bispecific antibody)
chain 1: DIQMTQSPSSLSASVGDRVTITCRASQDIRNYLNWYQQKPGKAPKLLIYYTSRLESGVPSRFSGSGSGTDYTLTISSLQPEDFATYYCQQGNTLPWTFGQGTKVEIKSSASTKGPSVFPLAPSSKSTSGGTAALGCLVKDYFPEPVTVSWNSGALTSGVHTFPAVLQSSGLYSLSSVVTVPSSSLGTQTYICNVNHKPSNTKVDKKVEPKSCGGGGSGGGGSEVQLQESGPGLVKPSQSLSLTCSVTGYSITSGYYWNWIRQFPGNKLEWMGYITYDGSNNYNPSLKNRISITRDTSKNQFFLKLNSVTTEDTATYYCADFDYWGQGTTLTVSSASTKGPSVFPLAPSSKSTSGGTAALGCLVKDYFPEPVTVSWNSGALTSGVHTFPAVLQSSGLYSLSSVVTVPSSSLGTQTYICNVNHKPSNTKVDKKVEPKSCDKTHTCPPCPAPEAAGGPSVFLFPPKPKDTLMISRTPEVTCVVVDVSHEDPEVKFNWYVDGVEVHNAKTKPREEQYNSTYRVVSVLTVLHQDWLNGKEYKCKVSNKALGAPIEKTISKAKGQPREPQVCTLPPSRDELTKNQVSLSCAVKGFYPSDIAVEWESNGQPENNYKTTPPVLDSDGSFFLVSKLTVDKSRWQQGNVFSCSVMHEALHNHYTQKSLSLSPGK
chain 2: EVQLVESGGGLVQPGGSLRLSCAASGYSFTGYTMNWVRQAPGKGLEWVALINPYKGVSTYNQKFKDRFTISVDKSKNTAYLQMNSLRAEDTAVYYCARSGYYGDSDWYFDVWGQGTLVTVSSASVAAPSVFIFPPSDEQLKSGTASVVCLLNNFYPREAKVQWKVDNALQSGNSQESVTEQDSKDSTYSLSSTLTLSKADYEKHKVYACEVTHQGLSSPVTKSFNRGEC
chain 3: DIVLTQSPSSLSASLGDRVTISCSASQGIRNYLNWYQQRPDGTVKLLIYYTSSLHSGVPSRFSGSGSGTDYSLTISNLEPEDIATYYCQQYSKLPWTFGGGTKLEIKRTVAAPSVFIFPPSDEQLKSGTASVVCLLNNFYPREAKVQWKVDNALQSGNSQESVTEQDSKDSTYSLSSTLTLSKADYEKHKVYACEVTHQGLSSPVTKSFNRGEC
chain 4: not shown
notes: Two MCSP Fabs, one CD3 Crossfab fused to the N-terminus of one Fab; also called anti-MCSP/anti-huCD3; CD3-MCSP 2+1 IgG Crossfab (N-terminal)
B2: CD3-MCSP 1+1 IgG Crossfab (N-terminal) (SEQ ID NOs 1, 3, 4, 86) (bispecific antibody)
chain 1: B1 chain 1
chain 2: B1 chain 2
chain 3: B1 chain 3
chain 4: not shown
B3: CD3-MCSP 1+1 CrossMab; CL/CH1 exchange (MCSP (LC007)/huCD3) (bispecific antibody)
chain 1: B1 chain 3
chain 2: DIQMTQSPSSLSASVGDRVTITCRASQDIRNYLNWYQQKPGKAPKLLIYYTSRLESGVPSRFSGSGSGTDYTLTISSLQPEDFATYYCQQGNTLPWTFGQGTKVEIKSSASTKGPSVFPLAPSSKSTSGGTAALGCLVKDYFPEPVTVSWNSGALTSGVHTFPAVLQSSGLYSLSSVVTVPSSSLGTQTYICNVNHKPSNTKVDKKVEPKSC
chain 3: not shown
chain 4: EVQLQESGPGLVKPSQSLSLTCSVTGYSITSGYYWNWIRQFPGNKLEWMGYITYDGSNNYNPSLKNRISITRDTSKNQFFLKLNSVTTEDTATYYCADFDYWGQGTTLTVSSASTKGPSVFPLAPSSKSTSGGTAALGCLVKDYFPEPVTVSWNSGALTSGVHTFPAVLQSSGLYSLSSVVTVPSSSLGTQTYICNVNHKPSNTKVDKKVEPKSCDKTHTCPPCPAPEAAGGPSVFLFPPKPKDTLMISRTPEVTCVVVDVSHEDPEVKFNWYVDGVEVHNAKTKPREEQYNSTYRVVSVLTVLHQDWLNGKEYKCKVSNKALGAPIEKTISKAKGQPREPQVCTLPPSRDELTKNQVSLSCAVKGFYPSDIAVEWESNGQPENNYKTTPPVLDSDGSFFLVSKLTVDKSRWQQGNVFSCSVMHEALHNHYTQKSLSLSPGK
B4: 2+1 IgG Crossfab (N-terminal), inverted; CL/CH1 exchange (MCSP (LC007)/huCD3) (bispecific antibody)
chain 1: B1 chain 3
chain 2: B3 chain 2
chain 3: B3 chain 4
chain 4: not shown
notes: also called the inverted construct; CD3/MCSP 2+1 IgG Crossfab (N-terminal), inverted

How the values were obtained:
[1] = molecular target: T1, human MCSP (Melanoma-associated Chondroitin Sulfate Proteoglycan), expressed on tumor cells (human, UniProt Q6UVK1 30-2322); assay: cell-based or functional assay
T1 sequence (Q6UVK1 30-2322): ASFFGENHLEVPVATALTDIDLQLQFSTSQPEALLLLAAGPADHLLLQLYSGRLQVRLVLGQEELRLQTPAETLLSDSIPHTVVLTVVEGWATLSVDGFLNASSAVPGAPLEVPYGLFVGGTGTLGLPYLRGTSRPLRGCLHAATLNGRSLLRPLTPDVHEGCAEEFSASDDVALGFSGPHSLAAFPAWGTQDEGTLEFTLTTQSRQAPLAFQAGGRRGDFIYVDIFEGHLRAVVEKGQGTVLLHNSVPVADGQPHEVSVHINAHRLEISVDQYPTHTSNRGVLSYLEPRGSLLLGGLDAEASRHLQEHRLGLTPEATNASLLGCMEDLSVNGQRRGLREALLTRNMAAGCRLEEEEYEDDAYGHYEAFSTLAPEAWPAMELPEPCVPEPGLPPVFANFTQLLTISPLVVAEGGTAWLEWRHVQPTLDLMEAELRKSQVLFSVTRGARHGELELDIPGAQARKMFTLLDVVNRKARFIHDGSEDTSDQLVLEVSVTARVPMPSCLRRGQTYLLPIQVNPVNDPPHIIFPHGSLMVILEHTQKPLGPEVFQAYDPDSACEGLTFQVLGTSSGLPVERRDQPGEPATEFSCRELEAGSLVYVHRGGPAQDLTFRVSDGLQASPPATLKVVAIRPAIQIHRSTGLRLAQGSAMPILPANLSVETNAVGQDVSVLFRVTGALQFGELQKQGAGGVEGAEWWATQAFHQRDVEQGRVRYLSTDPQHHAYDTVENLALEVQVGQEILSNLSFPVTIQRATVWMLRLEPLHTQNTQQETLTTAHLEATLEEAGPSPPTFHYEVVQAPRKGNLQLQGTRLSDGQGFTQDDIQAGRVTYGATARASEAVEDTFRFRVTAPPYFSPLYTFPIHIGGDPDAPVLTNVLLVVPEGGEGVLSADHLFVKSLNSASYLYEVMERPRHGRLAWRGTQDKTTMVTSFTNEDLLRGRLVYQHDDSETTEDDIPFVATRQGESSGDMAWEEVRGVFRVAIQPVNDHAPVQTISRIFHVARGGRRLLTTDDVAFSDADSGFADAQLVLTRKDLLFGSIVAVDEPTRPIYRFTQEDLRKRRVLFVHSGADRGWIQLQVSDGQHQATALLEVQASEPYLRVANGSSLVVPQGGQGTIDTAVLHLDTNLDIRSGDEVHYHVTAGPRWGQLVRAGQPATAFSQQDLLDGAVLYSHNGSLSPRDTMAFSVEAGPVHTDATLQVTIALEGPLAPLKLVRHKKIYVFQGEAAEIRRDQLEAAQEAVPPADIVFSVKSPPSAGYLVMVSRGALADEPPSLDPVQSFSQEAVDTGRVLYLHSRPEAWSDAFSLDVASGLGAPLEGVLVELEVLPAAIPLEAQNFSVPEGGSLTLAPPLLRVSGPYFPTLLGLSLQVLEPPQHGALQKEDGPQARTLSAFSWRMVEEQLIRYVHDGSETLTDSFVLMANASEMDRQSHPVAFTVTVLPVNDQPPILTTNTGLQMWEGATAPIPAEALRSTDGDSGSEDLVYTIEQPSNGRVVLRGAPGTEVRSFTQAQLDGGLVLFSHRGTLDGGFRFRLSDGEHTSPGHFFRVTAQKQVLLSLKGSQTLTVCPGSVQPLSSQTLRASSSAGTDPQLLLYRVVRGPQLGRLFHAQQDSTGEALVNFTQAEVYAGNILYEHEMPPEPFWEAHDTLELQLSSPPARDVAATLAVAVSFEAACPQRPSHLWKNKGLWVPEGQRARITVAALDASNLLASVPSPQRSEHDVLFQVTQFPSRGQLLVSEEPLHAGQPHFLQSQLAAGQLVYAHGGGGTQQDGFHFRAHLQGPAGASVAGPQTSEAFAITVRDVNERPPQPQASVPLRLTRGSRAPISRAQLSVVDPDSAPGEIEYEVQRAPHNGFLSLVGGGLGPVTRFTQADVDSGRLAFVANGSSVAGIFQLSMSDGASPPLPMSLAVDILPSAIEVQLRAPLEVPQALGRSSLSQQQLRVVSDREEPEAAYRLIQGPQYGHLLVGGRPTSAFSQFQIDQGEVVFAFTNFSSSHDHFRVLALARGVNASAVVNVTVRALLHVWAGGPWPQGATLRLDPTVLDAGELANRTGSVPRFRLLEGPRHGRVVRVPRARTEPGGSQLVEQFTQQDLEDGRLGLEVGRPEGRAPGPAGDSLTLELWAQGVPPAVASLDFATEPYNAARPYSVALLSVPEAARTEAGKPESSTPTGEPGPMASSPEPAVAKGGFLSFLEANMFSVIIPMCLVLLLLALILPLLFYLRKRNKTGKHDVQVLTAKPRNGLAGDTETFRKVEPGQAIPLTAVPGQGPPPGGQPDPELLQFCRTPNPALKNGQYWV

[2] = molecular target: T2, human CD3, expressed by Jurkat cells (human, UniProt P07766 23-207); assay: FACS on Jurkat cells, FITC/PE anti-human Fc secondary
T2 construct: whole, on cells; The assay presents the whole CD3 complex on Jurkat T cells; also called human CD3 on cells; huCD3
T2 sequence (P07766 23-207): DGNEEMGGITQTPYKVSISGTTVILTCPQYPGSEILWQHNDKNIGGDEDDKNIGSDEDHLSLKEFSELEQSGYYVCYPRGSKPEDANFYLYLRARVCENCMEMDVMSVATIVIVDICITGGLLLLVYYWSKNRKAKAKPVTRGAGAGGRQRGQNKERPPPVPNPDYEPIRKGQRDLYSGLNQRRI
Experimental: Binding of the different bispecific constructs to CD3 on Jurkat (ATCC #TIB-152) cells, and the respective tumor antigen MCSP on WM266-4 cells or CEA on LS174-T cells, was determined by FACS. Briefly, cells were harvested, counted and checked for viability. 0.15-0.2 million cells per well were plated in a round-bottom 96-well plate and incubated with the indicated concentration of the bispecific constructs and controls for 30 min at 4° C. For a better comparison, the constructs were normalized to same molarity. Cells were washed with PBS containing 0.1% BSA once. After incubation with a FITC- or PE-conjugated secondary antibody for 30 min at 4° C., bound constructs were detected using a FACSCantoII (Software FACS Diva). A FITC- or PE-conjugated AffiniPure F(ab′)2 Fragment goat anti-human IgG Fcγ Fragment Specific (Jackson Immuno Research Lab #109-096-098/working solution 1:20, or #109-116-170/working solution 1:80, respectively) was used. […] EC50 values were calculated using the GraphPad Prism 5 software.
As a control, the equivalent maximum concentration of the corresponding IgGs and the background staining due to the labeled 2ndary antibody (goat anti-human FITC-conjugated AffiniPure F(ab′)2 Fragment, Fcγ Fragment-specific, Jackson Immuno Research Lab #109-096-098) were assessed as well. […]

[3] = molecular target: T1, human MCSP (Melanoma-associated …); assay: FACS on WM266-4 cells, FITC/PE anti-human Fc secondary
Experimental: Binding of the different bispecific constructs to CD3 on Jurkat (ATCC #TIB-152) cells, and the respective tumor antigen MCSP on WM266-4 cells or CEA on LS174-T cells, was determined by FACS. Briefly, cells were harvested, counted and checked for viability. 0.15-0.2 million cells per well were plated in a round-bottom 96-well plate and incubated with the indicated concentration of the bispecific constructs and controls for 30 min at 4° C. For a better comparison, the constructs were normalized to same molarity. Cells were washed with PBS containing 0.1% BSA once. After incubation with a FITC- or PE-conjugated secondary antibody for 30 min at 4° C., bound constructs were detected using a FACSCantoII (Software FACS Diva). A FITC- or PE-conjugated AffiniPure F(ab′)2 Fragment goat anti-human IgG Fcγ Fragment Specific (Jackson Immuno Research Lab #109-096-098/working solution 1:20, or #109-116-170/working solution 1:80, respectively) was used. Unless otherwise indicated, cells were fixed with 100 μl/well fixation buffer (BD #554655) for 15 min at 4° C. in the dark, centrifuged for 6 min at 400×g and kept in 200 μl/well PBS containing 0.1% BSA until analysis. EC50 values were calculated using the GraphPad Prism 5 software.
While binding of both construct to MCSP on cells was comparably good, the binding of the “inverted” construct to CD3 was reduced compared to the other construct.

| Binder | EC50 of killing (LDH release) of MV-3 cells, human PBMCs, E:T 10:1, 21 h [1] | EC50 of killing (LDH release) of WM266-4 cells, human PBMCs, E:T 10:1, 21 h [1] | EC50 [2] | EC50 [3] |
| --- | --- | --- | --- | --- |
| B1 | 9.2 pM | 33.1 pM | 1.66 nM | 0.95 nM |
| B2 | 40.9 pM | 28.4 pM |  |  |
| B3 | 88.4 pM | 53.9 pM |  |  |
| B4 |  |  | 6.1 nM | 0.57 nM |
